Laboratory results: JP2020117470A (dated 2020)

Molecular target: T1, Streptococcus pyogenesのStreptolysin O(SLO) (Streptococcus pyogenes, UniProt P0C0I3 34-571)
T1 sequence: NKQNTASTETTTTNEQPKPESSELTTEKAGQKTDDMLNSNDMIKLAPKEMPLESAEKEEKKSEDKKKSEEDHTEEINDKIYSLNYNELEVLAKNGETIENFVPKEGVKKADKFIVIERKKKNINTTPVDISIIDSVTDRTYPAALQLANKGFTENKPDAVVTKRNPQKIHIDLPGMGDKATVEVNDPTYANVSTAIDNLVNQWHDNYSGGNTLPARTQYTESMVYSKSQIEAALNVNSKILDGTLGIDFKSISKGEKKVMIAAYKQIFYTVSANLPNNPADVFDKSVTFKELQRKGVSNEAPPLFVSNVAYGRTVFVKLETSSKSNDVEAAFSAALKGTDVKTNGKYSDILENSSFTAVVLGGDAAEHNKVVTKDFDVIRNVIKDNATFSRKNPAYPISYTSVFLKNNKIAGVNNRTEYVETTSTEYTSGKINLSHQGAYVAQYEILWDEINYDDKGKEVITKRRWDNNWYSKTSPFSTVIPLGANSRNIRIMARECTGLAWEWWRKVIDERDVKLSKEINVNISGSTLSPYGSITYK
Assay: ELISA, plate coated with 1 μg/mL SLO, anti-mouse IgG-HRP detection

B1: 抗体HS3 (antibody, V domains shown)
VH: EVQLQESGPDLVKPSQSLSLICTVTGYSITSGYNWHWIRQFPGNKLEWMAYIDYTGSTHYNPSLKSRISITRDTSKNHFFLQLNSVTTEDTATYYCARDYGNYEWSFDVWGAGTTVTVSS
VL: DIQMNQSPSSLSASLGDTITITCHASQNINVWLSWYQQKPGNIPKLLIYKASNLHTGVPSRFSGSGSGTGFTLTISSLQPEDIATYYCQQGQSYPLTFGAGTKL
binding result: no binding

B2: 抗体HS2 (antibody, V domains shown)
V domain 1: VQLQESGPELVKPGASVKISCKASGYAFSSSWMNWVRQRPGQGLEWIGRIYPGDGDTNYNGKFKGKATLTADKSSNAAYMHLSSLTSVDSAVYFCARRNYGSGFLYYFDYWGQGTTLTV
V domain 2: QIVLSQFPAILSASPGEKVTMTCRASSSVSYMHWYQQKPGSSPKLWIYATSDLASGVPARFSGSGSGTSYSLTISRVEAEDAATYYCQQWSSNPPTFGGGTKL
binding result: no binding
